The values that follow are results of earlier work, collected in article PMC8006918.

In data set [1] the target is Tenascin-C (Homo sapiens) (UniProt P24821).
Data set [2] has the same target. This is another data set of the same source.
The target is the same in data set [3]. This is another data set of the same source.

Like-named read-outs stand apart in the source and are kept apart here.

Chain of Tenascin-C (Homo sapiens) (P24821 23-2201): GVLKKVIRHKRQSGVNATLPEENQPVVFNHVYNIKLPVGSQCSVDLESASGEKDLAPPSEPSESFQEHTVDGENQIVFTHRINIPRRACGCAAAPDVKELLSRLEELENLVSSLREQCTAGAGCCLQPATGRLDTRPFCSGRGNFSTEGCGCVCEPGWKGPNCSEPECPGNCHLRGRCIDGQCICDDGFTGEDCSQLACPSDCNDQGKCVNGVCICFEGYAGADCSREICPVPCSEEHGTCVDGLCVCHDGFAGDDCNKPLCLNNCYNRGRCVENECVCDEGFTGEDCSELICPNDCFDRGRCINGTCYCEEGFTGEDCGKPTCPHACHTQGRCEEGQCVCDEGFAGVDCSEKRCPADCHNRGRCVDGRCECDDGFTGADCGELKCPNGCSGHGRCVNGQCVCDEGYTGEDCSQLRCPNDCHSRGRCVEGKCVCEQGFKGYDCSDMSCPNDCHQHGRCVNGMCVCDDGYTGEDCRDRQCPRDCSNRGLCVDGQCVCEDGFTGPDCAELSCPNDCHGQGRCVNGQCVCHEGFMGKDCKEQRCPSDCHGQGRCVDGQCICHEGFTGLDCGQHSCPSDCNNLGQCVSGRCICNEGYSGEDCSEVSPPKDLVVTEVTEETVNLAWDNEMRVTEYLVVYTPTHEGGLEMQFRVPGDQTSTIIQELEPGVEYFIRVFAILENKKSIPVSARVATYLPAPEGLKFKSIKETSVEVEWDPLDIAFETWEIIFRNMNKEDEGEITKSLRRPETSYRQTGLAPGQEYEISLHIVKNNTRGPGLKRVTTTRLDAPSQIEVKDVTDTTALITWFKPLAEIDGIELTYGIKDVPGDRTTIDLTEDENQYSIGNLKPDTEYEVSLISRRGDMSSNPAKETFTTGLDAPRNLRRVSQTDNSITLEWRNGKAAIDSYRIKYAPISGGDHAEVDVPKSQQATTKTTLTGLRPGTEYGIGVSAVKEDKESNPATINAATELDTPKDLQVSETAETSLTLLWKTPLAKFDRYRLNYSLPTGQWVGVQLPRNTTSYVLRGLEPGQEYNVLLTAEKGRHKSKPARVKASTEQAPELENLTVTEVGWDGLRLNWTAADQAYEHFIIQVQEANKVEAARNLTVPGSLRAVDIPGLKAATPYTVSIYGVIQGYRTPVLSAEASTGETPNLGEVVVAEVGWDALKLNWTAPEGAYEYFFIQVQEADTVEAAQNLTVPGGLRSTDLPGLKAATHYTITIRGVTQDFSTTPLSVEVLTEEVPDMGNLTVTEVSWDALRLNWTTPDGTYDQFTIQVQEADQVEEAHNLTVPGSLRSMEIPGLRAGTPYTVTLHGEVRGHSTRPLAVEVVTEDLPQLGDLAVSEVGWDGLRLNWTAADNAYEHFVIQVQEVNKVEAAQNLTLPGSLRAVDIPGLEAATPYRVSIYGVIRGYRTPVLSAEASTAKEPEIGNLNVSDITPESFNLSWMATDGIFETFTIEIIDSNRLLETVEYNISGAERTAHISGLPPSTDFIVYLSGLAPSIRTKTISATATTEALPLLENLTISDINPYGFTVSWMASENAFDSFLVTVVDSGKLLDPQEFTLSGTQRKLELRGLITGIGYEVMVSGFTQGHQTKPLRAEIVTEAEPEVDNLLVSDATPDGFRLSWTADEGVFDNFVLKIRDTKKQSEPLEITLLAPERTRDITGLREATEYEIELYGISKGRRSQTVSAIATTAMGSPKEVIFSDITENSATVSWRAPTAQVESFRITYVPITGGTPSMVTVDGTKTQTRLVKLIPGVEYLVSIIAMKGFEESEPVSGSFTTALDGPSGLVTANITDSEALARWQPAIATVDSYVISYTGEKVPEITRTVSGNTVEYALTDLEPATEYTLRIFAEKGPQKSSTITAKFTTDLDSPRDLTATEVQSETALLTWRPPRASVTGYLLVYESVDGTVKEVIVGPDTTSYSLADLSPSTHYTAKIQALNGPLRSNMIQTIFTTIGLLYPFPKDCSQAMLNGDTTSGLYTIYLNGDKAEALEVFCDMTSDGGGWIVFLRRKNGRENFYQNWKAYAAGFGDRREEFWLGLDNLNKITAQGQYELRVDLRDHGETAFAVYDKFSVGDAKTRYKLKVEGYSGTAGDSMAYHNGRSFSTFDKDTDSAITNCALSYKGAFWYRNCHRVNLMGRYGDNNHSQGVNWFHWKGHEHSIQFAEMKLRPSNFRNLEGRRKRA
Chain of CCL21 (O00585 24-134): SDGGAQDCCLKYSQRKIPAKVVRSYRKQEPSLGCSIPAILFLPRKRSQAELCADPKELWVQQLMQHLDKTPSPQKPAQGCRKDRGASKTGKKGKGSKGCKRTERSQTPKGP
Chain of TGF-β1 (P01137 279-390): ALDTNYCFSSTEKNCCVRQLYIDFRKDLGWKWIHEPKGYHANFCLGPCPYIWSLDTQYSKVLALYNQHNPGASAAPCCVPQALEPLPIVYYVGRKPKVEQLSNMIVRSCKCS
Chain of Fibronectin FN III13 (P02751 1904-1992): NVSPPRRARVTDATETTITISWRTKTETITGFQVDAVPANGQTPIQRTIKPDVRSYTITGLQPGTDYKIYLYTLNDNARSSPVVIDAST

Take CCL21 (from UniProt O00585): in data set [1], the Kd (usually a measure of binding affinity in units of concentration) was 0.058 µM. As to TGF-β1 (from UniProt P01137), the Kd in data set [2] was 0.0203 µM. As for “Fibronectin FN III13 (from UniProt P02751)”, the Kd in data set [3] was 0.128 µM.
